From patent US20240059797A1 (GRITSTONE BIO, published 2024)
Residue numbers refer to the chain shown, from its start. Blank lines part the entries; values can stand above or below the binder they belong to.

Legend:
[1] = biological target: T1, HLA-A*01:01_… (HLA-PEPTIDE target G2), recombinant biotinylated complex (human, enzymatically biotinylated (BirA)); experiment: phage panning, scFv ELISA;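 note: scFv binders from three to four bead panning rounds, tested as PPEs by ELISA on streptavidin plates carrying peptide-HLA complex (2 µg/ml), detected via anti-V5 and HRP anti-mouse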
T1 construct: also called G2-pHLA
Experimental: Phage library screening was carried out according to the overall screening design described above. Three to four rounds of bead-based panning were performed to identify scFv binders to each peptide-HLA complex. For each round of panning, an aliquot of starting phage was set aside for input titering and the remaining phage was depleted three times against Dynabead M-280 streptavidin beads (Life Technologies) followed by a depletion against Streptavidin beads pre-bound with 100 μmoles of pooled negative peptide-HLA complexes. For the first round of panning, 100 μmoles of peptide-HLA complex bound to streptavidin beads was incubated with depleted phage for 2 hours at room temperature with rotation. Three five-minute washes with 0.5% BSA in 1×PBST (PBS+0.05% Tween-20) followed by three five-minute washes with 0.5% BSA in 1×PBS were utilized to remove any unbound phage to the peptide-HLA complex bound beads. To elute the bound phage from the washed beads, 1 ml 0.1M TEA was added and incubated for 10 minutes at room temperature with rotation. The eluted phage was collected from the beads and neutralized with 0.5 ml 1M Tris-HCl pH 7.5. The neutralized phage was then used to infect log growth TG-1 cells (OD₆₀₀=0.5) and after an hour of infection at 37° C., cells were plated onto 2YT media with 100 μg/ml carbenicillin and 2% glucose (2YTCG) agar plates for output titer and bacterial growth for subsequent panning rounds.
96-well and/or 384-well streptavidin coated plates (Pierce) were coated with 2 μg/ml peptide-HLA complex in HLA buffer and incubated overnight at 4° C. Plates were washed three times between each step with PBST (PBS+0.05%). The antigen coated plates were blocked with 3% BSA in PBS (blocking buffer) for 1 hour at room temperature. After washing, scFv PPEs were added to the plates and incubated at room temperature for 1 hour. Following washing, mouse anti-v5 antibody (Invitrogen) in blocking buffer was added to detect scFv and incubated at room temperature for 1 hour. After washing, HRP-goat anti-mouse antibody (Jackson ImmunoResearch) was added and incubated at room temperature for 1 hour.

[2] = biological target: HLA-A*02:01_… (HLA-PEPTIDE target G8), recombinant complex (human, enzymatically biotinylated (BirA) for screening and functional assays); experiment: scFv PPE ELISA
[3] = biological target: T1, HLA-A*01:01_… (HLA-PEPTIDE target G2), …; experiment: BLI, pHLA on sensor, Fab titrated, 1:1 model

B2: G8(1A03) scFv (scFv, V domains shown)
VH: QVQLVQSGAEVKKPGASVKVSCKASGGTFSRSAITWVRQAPGQGLEWMGWINPNSGATNYAQKFQGRVTMTRDTSTSTVYMELSSLRSEDTAVYYCARDDYGDYVAYFQHWGQGTLVTVSS
VL: DIQMTQSPSSLSASVGDRVTITCRASQSITSYLNWYQQKPGKAPKLLIYDASNLETGVPSRFSGSGSGTDFTLTISSLQPEDFATYYCQQNYNSVTFGQGTKLEIK
- fold selective binding to target pHLA over minipool of negative control pHLAs [2]: ≥ 3 fold

B3: G2(1B06) Fab (Fab, V domains shown)
VH: QVQLVQSGAEVKKPGASVKVSCKASGGTFSNYILSWVRQAPGQGLEWMGWINPDSGGTNYAQKFQGRVTMTRDTSTSTVYMELSSLRSEDTAVYYCARGSYGMDVWGQGTTVTVSS
VL: DIQMTQSPSSLSASVGDRVTITCRASQSISRWLAWYQQKPGKAPKLLIYAASSLQSGVPSRFSGSGSGTDFTLTISSLQPEDFATYYCQQSYSTPYTFGQGTKLEIK
notes: Fab
- Kd [3]: 44.4 nM
- koff [3]: 0.0323 s⁻¹
- kon [3]: 1.06e+06 M⁻¹ s⁻¹

B9: G2(2A11) Fab (Fab, V domains shown)
VH: EVQLLESGAEVKKPGASVKVSCKASGYTFTTYDLAWVRQAPGQGLEWMGWINPNSGGTNYAQKFQGRVTMTRDTSTSTVYMELSSLRSEDTAVYYCARANWLDYWGQGTLVTVSS
VL: B3 VL with S28D, S53R, S56A, T97S
notes: Fab
- Kd [3]: 28.1 nM
- koff [3]: 0.0172 s⁻¹
- kon [3]: 633000 M⁻¹ s⁻¹

B10: G8(1A04) scFv (scFv, V domains shown)
VH: QVQLVQSGAEVKKPGASVKVSCKASGYPFIGQYLHWVRQAPGQGLEWMGIINPSGDSATYAQKFQGRVTMTRDTSTSTVYMELSSLRSEDTAVYYCARDLSYYYGMDVWGQGTTVTVSS
VL: B3 VL with R24W, S28G, R31S, W32Y, S93N, Y96W, Q100P, L104V, E105D
- fold selective binding to target pHLA over minipool of negative control pHLAs [2]: ≥ 3 fold

B14: G8(1A06) scFv (scFv, V domains shown)
VH: QVQLVQSGAEVKKPGASVKVSCKASGYTFTNYYMHWVRQAPGQGLEWMGWMNPIGGGTGYAQKFQGRVTMTRDTSTSTVYMELSSLRSEDTAVYYCARVYDFWSVLSGFDIWGQGTLVTVSS
VL: B3 VL with S28A, R31N, W32S, S53T, Q89G, Y96P
- fold selective binding to target pHLA over minipool of negative control pHLAs [2]: ≥ 3 fold

B15: G2(1C06) scFv (scFv, V domains shown)
VH: QVQLVQSGAEVKKPGASVKVSCKASGYTFTDYQMFWVRQAPGQGLEWMGWINPNSGGTNYAQKFQGRVTMTRDTSTSTVYMELSSLRSEDTAVYYCAKGGGGYGMDVWGQGTTVTVSS
VL: B3 VL with S28G, R31N, W32Y, T94D, P95Q, Y96W, L104V
- binding result [1]: binds

B16: G2(1D06) scFv (scFv, V domains shown)
VH: QVQLVQSGAEVKKPGSSVKVSCKASGYTFTSQYMHWVRQAPGQGLEWMGRIIPLLGIVNYAQKFQGRVTITADESTSTAYMELSSLRSEDTAVYYCARDKNYYGMDVWGQGTTVTVSS
VL: EIVMTQSPATLSVSPGERATLSCRASQSVSRNLAWYQQKPGQAPRLLIYGASTRATGIPARFSGSGSGTEFTLTISSLQSEDFAVYYCQHYGYSPVTFGQGTKLEIK
- binding result [1]: binds

B17: G2(1H11) Fab (Fab, V domains shown)
VH: QVQLVQSGAEVKKPGASVKVSCKASGYTFTNYYMHWVRQAPGQGLEWMGMINPSGGGTSYAQKFQGRVTMTRDTSTSTVYMELSSLRSEDTAVYYCARGNPWELRLDYWGQGTLVTVSS
VL: DIQMTQSPSSLSASVGDRVTITCQASQDISNYLNWYQQKPGKAPKLLIYAASSLQSGVPSRFSGSGSGTDFTLTISSLQPEDFATYYCQQYYSYPFTFGPGTKVDIK
notes: Fab
- Kd [3]: 49.9 nM
- koff [3]: 0.028 s⁻¹
- kon [3]: 581000 M⁻¹ s⁻¹

Now from value to binder:

- binding result [1]: binds
B1: G2(2F01) scFv (scFv, V domains shown)
VH: QVQLVQSGAEVKKPGASVKVSCKASGYTFTSYYMHWVRQAPGQGLEWMGMINPRDDTTDYARDFQGRVTMTRDTSTSTVYMELSSLRSEDTAVYYCALSGNYYGMDVWGQGTTVTVSS
VL: DIQMTQSPSSLSASVGDRVTITCQASQDISNYLNWYQQKPGKAPKLLIYGASRLQSGVPSRFSGSGSGTDFTLTISSLQPEDFATYYCQEGITYTFGQGTKVEIK

- Kd [3]: 22.8 nM
- koff [3]: 0.00728 s⁻¹
- kon [3]: 366000 M⁻¹ s⁻¹
B4: G2(1B12) Fab (Fab, V domains shown)
VH: QVQLVQSGAEVKKPGASVKVSCKASGYTFTSYGITWVRQAPGQGLEWMGWINPNSGGTNYAQKFQGRVTMTRDTSTSTVYMELSSLRSEDTAVYYCARDYGDLDYWGQGTLVTVSS
VL: B3 VL with S28N, S30G, R31N, S53T, S56T, T94A, T97S
notes: Fab

- fold selective binding to target pHLA over minipool of negative control pHLAs [2]: ≥ 3 fold
B5: G8(1B03) scFv (scFv, V domains shown)
VH: EVQLLESGGGLVQPGGSLRLSCAASGFTFSDYYMSWVRQAPGKGLEWVSGINWNGGSTGYADSVKGRFTISRDNSKNTLYLQMNSLRAEDTAVYYCARVEQGYDIYYYYYMDVWGKGTTVTVSS
VL: B17 VL with Q24R, D28S, N31S, A50K, Q55E, Y91S, Y94A, F96Y

- binding result [1]: binds
B6: G2(1E03) scFv (scFv, V domains shown)
VH: QVQLVQSGAEVKKPGASVKVSCKASGYTFTGYYMHWVRQAPGQGLEWMGWMNPNSGNTGYAQKFQGRVTMTRDTSTSTVYMELSSLRSEDTAVYYCATYDDGMDVWGQGTTVTVSS
VL: B3 VL with R31H, W32Y, A34N, A50G, S93T, Y96W, K103R

- Kd [3]: 109 nM
- koff [3]: 0.036 s⁻¹
- kon [3]: 332000 M⁻¹ s⁻¹
B7: G2(2A03) Fab (Fab, V domains shown)
VH: QVQLVQSGAEVKKPGASVKVSCKASGYTFTSYTVNWVRQAPGQGLEWMGWINPNSGGTKYAQNFQGRVTMTRDTSTSTVYMELSSLRSEDTAVYYCARGGGGALDYWGQGTLVTVSS
VL: B3 VL with R31S, S53T, S93L, T94P, T97S
notes: Fab

- binding result [1]: binds
B8: G2(2A09) scFv (scFv, V domains shown)
VH: QVQLVQSGAEVKKPGASVKVSCKASGGTFSSYAISWVRQAPGQGLEWMGWINPNSGGTNYAQKFQGRVTMTRDTSTSTVYMELSSLRSEDTAVYYCAAMGIAVAGGMDVWGQGTLVTVSS
VL: B3 VL with S93L, T94P, T97S, L104V

- binding result [1]: binds
B11: G2(1B08) scFv (scFv, V domains shown)
VH: QVQLVQSGAEVKKPGASVKVSCKASGYTFTNYHMHWVRQAPGQGLEWMGWIHPDSGGTSYAQKFQGRVTMTRDTSTSTVYMELSSLRSEDTAVYYCARNWNLDYWGQGTLVTVSS
VL: B3 VL with R31N, D70Y, T94S

- binding result [1]: binds
B12: G2(2D04) scFv (scFv, V domains shown)
VH: QVQLVQSGAEVKKPGASVKVSCKASGYTFSNFLINWVRQAPGQGLEWMGWINPNSGGTNYAQKFQGRVTMTRDTSTSTVYMELSSLRSEDTAVYYCASERELPFDIWGQGTMVTVSS
VL: B3 VL with R31S, L33V, A50G, S53N, Q55E, T97S

- Kd [3]: 15.5 nM
- koff [3]: 0.0148 s⁻¹
- kon [3]: 952000 M⁻¹ s⁻¹
B13: G2(1H01) Fab (Fab, V domains shown)
VH: B4 VH with S31R, G33T, T35N, Y100F, G101V, D102G, L103Y, Y105D
VL: B3 VL with I29V, S30G, R31N, A50G, S56T, T94A, L104V
notes: Fab
